Test results: the MegaScale stability set (Tsuboyama et al. 2023)

B1: 2K2A (parent)
chain: ELREAFRLYDKEGNGYISTDVMREILAELDETLSSEDLDAMIDEIDADGSGTVDFEEFMGVMT
B2: 6YSE (parent)
chain: HERALMVNRLQKLTRMLRVHPDPKWKQEQQELIKRLK

Variants of: B1
Assay: folding stability dG (cDNA display proteolysis); higher = more stable
Conditions: PBS, room temperature

Folding stability dG [kcal/mol], by site and new letter:
A47: G 1.57, M 1.64, I 1.86, S 1.8
A5: K 2.72, S 1.39, G 1, L 3, R 2.66, Q 2.3
R23: C 0.094, L 0.522, Q -0.482, A 0.182, H -0.034
T63: Q 1.83, H 1.76, F 1.56, C 2.18, K 1.97, E 1.66, D 1.26, L 2.25
I42: R -0.918, V 1.34, P -0.739, D -0.854, T 0.392
I45: P -0.366, A 1.56
T19: R 1.86, M 1.91, A 1.32
A40: C 1.93, V 1.69, Q 1.8, E 1.51
E36: Y 1.81
S18: I 0.865, K 1.24, Q 1.01, V 0.765

Variants of: B2
Assay: as above
Conditions: PBS, room temperature

Folding stability dG [kcal/mol], by site and new letter:
N8: D 1.45, E 1.56, F 1.21
M6: K -0.045, N -0.861, W 0.832, T 0.188, L 1.46, H 0.07, Y -0.185, F -0.384, D 0.383, I 1.8, R 0.36, E 0.023, V 0.718, G -0.19, S 0.112, A 0.574, Q 0.35
E2: H 1.05, I 1.4, P 0.758, F 1.27, A 1.14, R 0.9, S 1.09, D 1.16, K 1.15, W 1.65, M 1.46, N 1.22, L 1.59, G 0.782, Q 1.25, Y 1.32, V 1.23
H1: K 1.42, A 1.55, M 1.68, E 1.26, G 1.05, R 1.63, Y 1.59, P 1.31, I 1.34, L 1.36, W 1.75, N 1.45, S 1.5, Q 1.38, F 1.59, D 1.53, T 1.45, C 2.12
V7: N 0.506, W 1.96, Y 1.67, H 1.09, E 1.11, K 1.05, P -0.01, A 0.946, L 2.05, D -0.144, T 0.591, F 1.42, I 1.78, Q 1.03, S 0.086, R 1.55, G 0.569, M 1.59, C 1.96
A4: E 1.35, Y 1.4, F 1.12, V 1.23, Q 1.63, L 1.49, M 1.66, K 1.68, P 0.222, I 1.53, T 1.46, D 1.35, G 0.783, N 1.31, S 1.06, W 1.7, H 1.35
L5: R 1.79, G 1.16, N 1.11, P -0.071, A 1.6, D 1, V 1.29, H 1.61, S 1.48, W 2.06, Y 1.23, M 1.83, T 1.27, F 1.19, Q 1.61, K 1.6, I 1.41
R3: H 1.18, G 0.193, I 1.63, W 1.59, V 1.34, D 0.418, E 0.651, Y 1.69, S 0.487, M 0.994, T 1.06, N 0.899, K 1.03, L 1.61, F 1.66, Q 0.786, A 0.434
